# Molecular target: His-caltubin-Tat (cell-penetrating caltubin) (Lymnaea stagnalis | HIV)
# Assay: ITC
binder,measurement,value
"Ac-LDHKFDLMYAKRAFV-NH2 [L391 peptide (synthetic, TUBA1 L391-V405)]",Kd,3.42 µM

# Reference: publication doi:10.1101/2023.01.23.525163
